Results taken from patent US12077763B2, “RNA-based control of powdery mildew” (Greenlight Biosciences, Inc., priority 2021, dated 2024).

System: E. necator
Assay: Leaf disc assay, dry inoculum (settling tower), decrease in disease severity / hyphal growth (Example 2)
Settings: decrease in disease severity (hyphal growth) relative to untreated control, value ± SE; for % decrease =/− SE TP1: time point 1 (untreated control hyphal growth ≥50%)

Molecule | % decrease =/− SE TP1 [%] | % decrease =/− SE TP2 (time point 2) [%]
GS3351 (nucleic acid) sense: AAGAAACAGACAGAUGAUUUUAUCAUAUUUCAAGGUAUAUUUGAAUUUAGUGAAUCUAGUUUAAUAUAAUUUAAAUUUAUUCGAUUAUCACCAACCUAUGAAAAAAUCAUUUCAUCCCAAUUCCGACAUGAAUUUGUAGUGUCUGACAGGUUUGUUUAAAAACGAAGUGGUGUAAAGAACCAUCGAUUCUUUCCACUUAAAUAUCUCUCCUCUAAGGCUUUCUUAACCACUUUCUUGGCAUCCUCUCGCUGCGAUACUUCCUUGAAUGUUUCUGUAGAUAUUACGUUUUUAAGACCUUCUAAUUCGAGUGUGUAACGUGUUGGCAUAAUAUGAUUAUAAUUGAUAACUUUUAUAAAA antisense: UUUUAUAAAAGUUAUCAAUUAUAAUCAUAUUAUGCCAACACGUUACACACUCGAAUUAGAAGGUCUUAAAAACGUAAUAUCUACAGAAACAUUCAAGGAAGUAUCGCAGCGAGAGGAUGCCAAGAAAGUGGUUAAGAAAGCCUUAGAGGAGAGAUAUUUAAGUGGAAAGAAUCGAUGGUUCUUUACACCACUUCGUUUUUAAACAAACCUGUCAGACACUACAAAUUCAUGUCGGAAUUGGGAUGAAAUGAUUUUUUCAUAGGUUGGUGAUAAUCGAAUAAAUUUAAAUUAUAUUAAACUAGAUUCACUAAAUUCAAAUAUACCUUGAAAUAUGAUAAAAUCAUCUGUCUGUUUCUU | 4 ± 7 | –
GS3356 (nucleic acid) sense: CUGGGUGAGUUUUUCGUAACGUCGCUACUUUAUUAACUUGAUCUGCCGUGGAUUUUGGUUGUCUUGUAUCAAUCAAAAGGAGAGGAAGCUUCGGAAACUUCAUUAAAGAUCUUAUGAUUGGCUCCUUUGAAUAGUCGGGCCUCUGAAAUAUAACAGCUUUUCCUUGGGAGGCAACAGUGUUAUCUACUCCUGAAGGGUUUCCAUGGAUACAUAUUUCUCCUACAUAAGCCCACAUAUUAAUGCGGCUUAUUUGGGUAUGUGCUUCUUCAAUGGGUUGGUCCUCAUGAGGCCCAGAAAGCGCUCUUACCUGUAAUAAGAGCGCAGCAGCUAGACACACAGUAAUAGAUGCA antisense: UGCAUCUAUUACUGUGUGUCUAGCUGCUGCGCUCUUAUUACAGGUAAGAGCGCUUUCUGGGCCUCAUGAGGACCAACCCAUUGAAGAAGCACAUACCCAAAUAAGCCGCAUUAAUAUGUGGGCUUAUGUAGGAGAAAUAUGUAUCCAUGGAAACCCUUCAGGAGUAGAUAACACUGUUGCCUCCCAAGGAAAAGCUGUUAUAUUUCAGAGGCCCGACUAUUCAAAGGAGCCAAUCAUAAGAUCUUUAAUGAAGUUUCCGAAGCUUCCUCUCCUUUUGAUUGAUACAAGACAACCAAAAUCCACGGCAGAUCAAGUUAAUAAAGUAGCGACGUUACGAAAAACUCACCCAG | 5 ± 5 | –
GS3347 (nucleic acid) sense: GUGAGUAUCAGGUGUAUAAAUAAAACGUAUAAAAAUGUGAUGUUAUAGAUCGACGGUCAAAGAUUUCUAGAGAUUGAGGUACUGGACAUUCCUUCUUCAACCCCUCAAGAAAUUGUUAAGUCGAAAGAUUAGUAAUUCUCAACUCUGAUUAAAAUAAUCGAUAUGUAUGAAGAUAAGCGAGAUGAAUUGAUAAUGUUGUCUAAAAUUUCGAAUUAUGAAUCUUUACAAAAGAGGGUGAGUUGUCGUAUGAUAAAAGGAGCCUGCUCCGAUCUAGAUAGAACACAGCAGGUAAAGUAGAAGUGAUAUCUGCGAGGAGCCUUGACACCAGCAAGGACUCAGUCCGAAGAGUACGAGUUGCUUUCUGGUUUGUUGAAUGAAAGAAGUAGAAAAAAAUAUAA antisense: UUAUAUUUUUUUCUACUUCUUUCAUUCAACAAACCAGAAAGCAACUCGUACUCUUCGGACUGAGUCCUUGCUGGUGUCAAGGCUCCUCGCAGAUAUCACUUCUACUUUACCUGCUGUGUUCUAUCUAGAUCGGAGCAGGCUCCUUUUAUCAUACGACAACUCACCCUCUUUUGUAAAGAUUCAUAAUUCGAAAUUUUAGACAACAUUAUCAAUUCAUCUCGCUUAUCUUCAUACAUAUCGAUUAUUUUAAUCAGAGUUGAGAAUUACUAAUCUUUCGACUUAACAAUUUCUUGAGGGGUUGAAGAAGGAAUGUCCAGUACCUCAAUCUCUAGAAAUCUUUGACCGUCGAUCUAUAACAUCACAUUUUUAUACGUUUUAUUUAUACACCUGAUACUCAC | 2 ± 7 | –
GS3357 (nucleic acid) sense: GAUCUGGUCGUGGUUUGCCGAAAAGAUUCUUCAUUCCUCCCGUUAUAAGAACGGUGAGUGAUAGUGAAAAGCUUAAUCCAAGCAAUCCAACGUGUAAUUCCCACAUUCUCCGAUGCCAUAUGGCAGAUCUAGGCGUUGACUUUGUAACCGUCGGUCCAGGAACAAGAACUAAGCAAAUAGCAAAAAUAACUAAUGCCGGAAUUAUAAAAGCAUAUAAUCCAAGCCAUCGUACCGAGACUUUUUCAUGUGUUUUAUAGGGAAAGCUGAUAUCUGGGUUCUCCAGCGAGAAGGGUCUUUUGUUUGGUACCCUCGAUCCAACAAAUAAUCCAAAAAAUGCACCAAAUAUAACUACCAGCCAAUCGACAACAUAUGAAAGUACUAGUUUUAAUGA antisense: UCAUUAAAACUAGUACUUUCAUAUGUUGUCGAUUGGCUGGUAGUUAUAUUUGGUGCAUUUUUUGGAUUAUUUGUUGGAUCGAGGGUACCAAACAAAAGACCCUUCUCGCUGGAGAACCCAGAUAUCAGCUUUCCCUAUAAAACACAUGAAAAAGUCUCGGUACGAUGGCUUGGAUUAUAUGCUUUUAUAAUUCCGGCAUUAGUUAUUUUUGCUAUUUGCUUAGUUCUUGUUCCUGGACCGACGGUUACAAAGUCAACGCCUAGAUCUGCCAUAUGGCAUCGGAGAAUGUGGGAAUUACACGUUGGAUUGCUUGGAUUAAGCUUUUCACUAUCACUCACCGUUCUUAUAACGGGAGGAAUGAAGAAUCUUUUCGGCAAACCACGACCAGAUC | 9 ± 6 | 7 ± 6
GS3352 (nucleic acid) sense: UGUAGAGGUGAAGUAGGUGAAAGUUGAUUUGGCGAUGGUAGAGAUGAGUUACUAUUACUGAUAGAAGGUAAAUUUGAGUAAGAUUGCAAAUUUCUAUCAGACGCAGCUGACUGAUCAAGAGUUUGCUCUAAUAAGGAUCUUUCAUGAGCUGAAUGCGCAUAUGUCGGUGACAAAUUUUUGGGAUGAUCGAUAAAGAAUUUUUUGGUUGAAUAGUUGCGAGAGAUUCCAGGUUGUAUUGCAGGUGAUGAAGAAGCUGGUGAAGAAAUGUUGCUUGAGUUGUCAAAAUUGCUACUGUUUGAACCAUUUGUUUUUGCGGAAGGAUACGGGAGUGGUUUACCUUCUUUUGCCAUCCGAAAAACUGGAAGUAAAUCCUCUCUAAGUCGUGUAUAUUCGAAUGU antisense: ACAUUCGAAUAUACACGACUUAGAGAGGAUUUACUUCCAGUUUUUCGGAUGGCAAAAGAAGGUAAACCACUCCCGUAUCCUUCCGCAAAAACAAAUGGUUCAAACAGUAGCAAUUUUGACAACUCAAGCAACAUUUCUUCACCAGCUUCUUCAUCACCUGCAAUACAACCUGGAAUCUCUCGCAACUAUUCAACCAAAAAAUUCUUUAUCGAUCAUCCCAAAAAUUUGUCACCGACAUAUGCGCAUUCAGCUCAUGAAAGAUCCUUAUUAGAGCAAACUCUUGAUCAGUCAGCUGCGUCUGAUAGAAAUUUGCAAUCUUACUCAAAUUUACCUUCUAUCAGUAAUAGUAACUCAUCUCUACCAUCGCCAAAUCAACUUUCACCUACUUCACCUCUACA | 6 ± 4 | –
